Data set [1] deals with human breast adenocarcinoma (MCF-7). The experiment in a line: Anti-cancer activity in vitro, MTT. Format: cell-based. On the procedure: (§1) In order to find out anticancer activity in vitro of the poly(organophosphazene) conjugated with anti-cancer drug of the present invention, the trial as follows was performed about the human breast adenocarcinoma (MCF-7, the Korea Cell Line Bank) and the human cervix adenocarcinoma (Hela, the Korea Cell Line Bank).
(§2) For the in vitro cell experiment, in order to measure the genesistasis concentration to 50% (IC50) toward the cancer cell of the poly(organophosphazene) conjugated with anticancer drug, the analytical method using 3-(4,5-dimethylthiazol-2-yl)-2,5-diphenyl-2H-tetrazolium bromide (MTT) was performed [T. Mosmann, J. Immunol. Method, 65, (1985) 55].
(§3) The materials for to measuring were respectively melted in the DMSO (dimethylsulfoxide) of the small amount, and they were diluted to the distilled water with 200 times. The materials solution were added to the cancer cell that is MCF-7(the Korea Cell Line Bank) and Hela (the Korea Cell Line Bank). Then, they were added to 96-well microtiter plater to 1.0×10^4 cell/ml (the concentration of the cancer cell). And they were cultivated for 2, 3, 4 days, respectively, with 37° C. in 5% CO2 condition.
(§4) MTT solution (20 μl) was mixed the cultivated cell with, and they were more cultivated for 4 hours with 37° C. in 5% CO2 condition. After the upper culture medium of each cell was removed, DMSO (100 μl) was added to a well and they were shaken in the room temperature to the plate shaker with for 20 minutes, thereby dissolving the formazan crystal generated by reducing of MTT.

The test system of data set [2] is human cervix adenocarcinoma (Hela). In words: Anti-cancer activity in vitro, MTT. Format: cell-based. As to the method: as §1, §2, §3, §4
A short description of data set [3]: Sol-gel phase transition with change of temperature (Brookfield rheometer). The note with it: for Gel solidity (maximum viscosity of the polymer solution) / Max. gelling temp. (temperature where the viscosity of the polymer solution reaches the maximum point): 10 wt % in phosphate buffered saline (pH 7.4); for viscosity in 37° C.: compared among Examples 3, 4 and 9. The class given is physicochemical. As to the method:
The poly(organophosphazene) conjugated with a drug or bioactivemolecules obtained in Examples 1 to 11 were respectively dissolved in phosphate buffered saline (pH 7.4) at 4° C. so as to make solutions with concentrations of 10 wt %. The solutions were put into a chamber of a Brookfield DV-III+ Rheometer equipped with a thermostatic bath (TC-501).

Data set [4] in a line: Hydrolysis of the polymer with time by GPC molecular weight. The class given is physicochemical. The note with it: 10 wt % in PBS pH 7.4, 37° C., compared among Examples 3, 4 and 9.

Regarding “poly[(isoleucineethylester)(aminomethoxypolyethyleneglycol 550)(glycylglycine)(glycylglycyldoxorubicin)phosphazene] [Example 3]”, the “Anti-cancer activity [IC50]” value in data set [1] (MCF-7, 2nd day) was 2.294 µg/mL; in data set [1] (MCF-7, 3rd day) it was 0.926 µg/mL; in data set [1] (MCF-7, 4th day), 0.798 µg/mL; in data set [2] (2nd day) it was 1.477 µg/mL; in data set [2] (3rd day), 1.065 µg/mL; in data set [2] (4th day) it was 0.605 µg/mL. In data set [3], the “Gel solidity (maximum viscosity of the polymer solution)” value was 158 Pa · s. Further, in data set [3], the “Max. gelling temp. (temperature where the viscosity of the polymer solution reaches the maximum point)” value was 38 °C. In addition, the “viscosity in 37° C.” value in data set [3] is “the highest viscosity”. In addition, the “speed of hydrolysis (reduced molecular weight by GPC)” value in data set [4] was “the most slowly hydrolyzed”.

“poly[(isoleucineethylester)(aminomethoxypolyethyleneglycol 550)(glycylglycine)(glycylglycylglycmethylester)(glycylglycylglycin-arginine-glycin-asparagine-cerinicacidpeptied)phosphazene] [Example 9]”: in data set [3], the “Gel solidity (maximum viscosity of the polymer solution)” value is listed as 130 Pa · s, the “Max. gelling temp. (temperature where the viscosity of the polymer solution reaches the maximum point)” value worked out at 46 °C and the “viscosity in 37° C.” value is “the lowest viscosity”. In addition, in data set [4], the “speed of hydrolysis (reduced molecular weight by GPC)” value is “the most quickly hydrolyzed”.

The values are drawn from patent publication US8287888B2, “Thermosensitive polyphosphazene-bioactive molecule conjugates, preparation method thereof and use thereof” (Korea Institute of Science and Technology, priority 2006, dated 2012).
